In patent US20240360208A1 (Hoffmann-La Roche, published 2024):

T1: human FcγRIIb receptor on CHO-K1 cells (clone 223) (human, UniProt P31994 43-310)
T1 sequence (looked up): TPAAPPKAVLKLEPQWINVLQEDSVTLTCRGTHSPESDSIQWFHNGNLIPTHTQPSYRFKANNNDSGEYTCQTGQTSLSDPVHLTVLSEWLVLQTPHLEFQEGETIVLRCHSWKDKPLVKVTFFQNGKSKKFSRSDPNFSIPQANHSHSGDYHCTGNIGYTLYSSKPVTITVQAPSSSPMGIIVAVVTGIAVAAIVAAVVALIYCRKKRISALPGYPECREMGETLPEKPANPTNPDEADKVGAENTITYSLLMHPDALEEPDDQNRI


Columns and labels:
[1] = target: T2, human CCL2 (MCP1) - wild type (wt) (human, UniProt P13500 24-99); test: SPR, C1 chip, anti-human Fc capture, 25 C, pH 7.4, Langmuir 1:1
T2 construct: Made in-house or bought (R&D Systems 279-MC), depending on the assay; can form dimers; also called wt human CCL2; WT human CCL2
Protocol: The sample and system buffer was PBS-T (10 mM phosphate buffered saline including 0.05% Tween20) pH 7.4. The flow cell was set to 25° C.—and the sample block set to 12° C.—and primed with running buffer twice. The bispecific antibody was captured by injecting a 2 μg/ml solution for 60 see at a flow rate of 10 μl/min. Association was measured by injection of human CCL2 (wt) in various concentrations in solution for 150 see at a flow rate of 30 μl/min starting with 30 nM in 1:10 dilutions. The dissociation phase was monitored for up to 1200 sec and triggered by switching from the sample solution to running buffer. […] Bulk refractive index differences were corrected by subtracting the response obtained from a goat anti human IgG Fc surface. Blank injections are also subtracted (=double referencing). For calculation of kinetic parameters, the Langmuir 1:1 model was used.

[2] = target: T1, human FcγRIIb receptor on CHO-K1 cells …; test: cell-based or functional assay

binding result [1]	Depletion level max (%) of CCL2 from the supernatant [2]	EC50 [nM] of CCL2 depletion [2]	EC90 [nM] of CCL2 depletion [2]	Binder
binds	–	–	–	ABN912//11K2-WT IgG1 (bispecific antibody, V domains shown, CrossMab, wild type IgG1 with knobs-into-holes; crossed arm humanized 11K2, non-crossed arm ABN912; also called CCL2-0047; P1AA3447) VH 1: QVQLVQSGAEVKKPGSSVKVSCKASGLTISDTYMHWVRQAPGQGLEWMGRIDPANGNTKFDPKFQGRVTITADTSTSTAYMELSSLRSEDTAVYYCARGVFGFFDYWGQGTTVTVSS VL 1: DIQMTQSPSSLSASVGDRVTITCKATEDIYNRLAWYQQKPGKAPKLLISGATSLETGVPSRFSGSGSGTDYTLTISSLQPEDFATYYCQQFWSAPYTFGGGTKVEIK VH 2: EVQLVQSGGGLVQPGGSLRLSCAASGFTFSHYWMSWVRQAPGKGLEWLANIEQDGSEKYYVDSVKGRFTISRDNAKNSLYLQMNSLRAEDTAVYFCARDLEGLHGDGYFDLWGRGTLVTVSS VL 2: AIQLTQSPSSLSASVGDRVILTCRASQGVSSALAWYQQKPGKAPKLLIYDASSLESGVPSRFSGSGSGPDFTLTISSLQPEDFATYFCQQFNSYPLTFGGGTKVEIK
binds	–	–	–	11K2//2F6-PGLALA (bispecific antibody, V domains shown, CrossMab, IgG1 with L234A, L235A, P329G, knobs-into-holes; crossed arm humanized 11K2, non-crossed arm 2F6; also called CCL2-0053; P1AA3450) VH 1: QVQLVQSGAEVKKPGSSVKVSCKASGLTISDTYMHWVRQAPGQGLEWMGRIDPANGNTKFDPKFQGRVTITADTSTSTAYMELSSLRSEDTAVYYCARGVFGFFDYWGQGTTVTVSS VL 1: DIQMTQSPSSLSASVGDRVTITCKATEDIYNRLAWYQQKPGKAPKLLISGATSLETGVPSRFSGSGSGTDYTLTISSLQPEDFATYYCQQFWSAPYTFGGGTKVEIK VH 2: QSLEESGGGLVQPEGSLTLTCTASGFSFNNNYYMCWVRQAPGKGLEWIGCISTDDSNTHYASWAQGRFTISKASSTALTLQVAGLTVADMATYFCARDAHFTSYGYGFDLWGPGTLVTVSS VL 2: DIVMTQTPASVSAAVGGTVSINCRASEDIENLVAWYQQKPGQPPKLLIYQASKLASGVPSRFKGSGSGAEFTLTIGDLESADAATYYCQGDYGSGWIMYSFGGGTDLVVK
binds	–	–	–	1A5//1G9-PGLALA (bispecific antibody, V domains shown, CrossMab, IgG1 with L234A, L235A, P329G, knobs-into-holes; crossed arm 1A5, non-crossed arm 1G9; also called CCL2-0046; P1AA3444) VH 1: QEQLVESGGDLVKPEGSLTLTCTASGFSFSTSYWMCWVRQAPGKGLELIACISSSIGVTYYASWAEGRFTISKTSSTTVTLQMTSLTVADTATYFCARTTDDNWNVGFNLWGPGTLVTVSS VL 1: AYDMTQTPASVEVGVGGTVTIKCQASQSIGNRYLSWYQQKPGQPPKLLIYGTSTLASGVSSRFKGSGSGTQFTLTISGVESADSATYYCQQGATISYLDNAFGGGTEVVVK VH 2: QSLEESGGDLVKPGASLTLTCKASGIDFSLYSYMCWVRQAPGKGLEWIACVDAGASGSTYYASWAKGRFTISKTSSTTVTLQMTSLTAADTATYFCARGILYYTWPYPAGAIDAFDSWGPGTLVTVSS VL 2: AYDMTQTPASVSEPVGGTVTIKCQASESISNYLSWYQQKPGQPPKLLIYKASTLASGVPSRFKGSGSGTEYTVTISGVQSDDAATYYCQQSYSSSNVFNTFGGGTEVVVK
binds	–	–	–	11K2//1G9-WT IgG1 (bispecific antibody, V domains shown, CrossMab, wild type IgG1 with knobs-into-holes; crossed arm humanized 11K2, non-crossed arm 1G9; also called CCL2-0049; P1AA3461) VH 1: QVQLVQSGAEVKKPGSSVKVSCKASGLTISDTYMHWVRQAPGQGLEWMGRIDPANGNTKFDPKFQGRVTITADTSTSTAYMELSSLRSEDTAVYYCARGVFGFFDYWGQGTTVTVSS VL 1: DIQMTQSPSSLSASVGDRVTITCKATEDIYNRLAWYQQKPGKAPKLLISGATSLETGVPSRFSGSGSGTDYTLTISSLQPEDFATYYCQQFWSAPYTFGGGTKVEIK VH 2: QSLEESGGDLVKPGASLTLTCKASGIDFSLYSYMCWVRQAPGKGLEWIACVDAGASGSTYYASWAKGRFTISKTSSTTVTLQMTSLTAADTATYFCARGILYYTWPYPAGAIDAFDSWGPGTLVTVSS VL 2: AYDMTQTPASVSEPVGGTVTIKCQASESISNYLSWYQQKPGQPPKLLIYKASTLASGVPSRFKGSGSGTEYTVTISGVQSDDAATYYCQQSYSSSNVFNTFGGGTEVVVK
binds	–	–	–	1A5//1G9-WT IgG1 (bispecific antibody, V domains shown, CrossMab, wild type IgG1 with knobs-into-holes; crossed arm 1A5, non-crossed arm 1G9; also called CCL2-0052; P1AA3446) VH 1: QEQLVESGGDLVKPEGSLTLTCTASGFSFSTSYWMCWVRQAPGKGLELIACISSSIGVTYYASWAEGRFTISKTSSTTVTLQMTSLTVADTATYFCARTTDDNWNVGFNLWGPGTLVTVSS VL 1: AYDMTQTPASVEVGVGGTVTIKCQASQSIGNRYLSWYQQKPGQPPKLLIYGTSTLASGVSSRFKGSGSGTQFTLTISGVESADSATYYCQQGATISYLDNAFGGGTEVVVK VH 2: QSLEESGGDLVKPGASLTLTCKASGIDFSLYSYMCWVRQAPGKGLEWIACVDAGASGSTYYASWAKGRFTISKTSSTTVTLQMTSLTAADTATYFCARGILYYTWPYPAGAIDAFDSWGPGTLVTVSS VL 2: AYDMTQTPASVSEPVGGTVTIKCQASESISNYLSWYQQKPGQPPKLLIYKASTLASGVPSRFKGSGSGTEYTVTISGVQSDDAATYYCQQSYSSSNVFNTFGGGTEVVVK
–	45%	0.6 nM	~30 nM	CKLO2-GG02 (=P1AF8139) (bispecific antibody) heavy 1: DIQMTQSPSSLSASVGDRVTITCKAFEDIYNRRAWYQQKPGKAPKLLIHGATSLEHGVPSRFSGSGSGTDYTLTISSLQPEDFATYYCQQFWSAPYTFGGGTKVEIKSSASTKGPSVFPLAPSSKSTSGGTAALGCLVKDYFPEPVTVSWNSGALTSGVHTFPAVLQSSGLYSLSSVVTVPSSSLGTQTYICNVNHKPSNTKVDKKVEPKSCDKTHTCPPCPAPEYLGGDSVFLFPPKPKDVLMISRTPEVTCVVIDVSHEDPEVKFNWYVDGVEVHNAKTKPREEQYNSTYRVVSVLPVLHRDWLNGKEYKCKVSNKALPKPIEKTISKAKGQRREPQVYTLPPCRDELTKNQVSLWCLVKGFYPSDIAVEWESNGQPENNYKTTPPVLDSDGSFFLYSKLTVDKSRWQQGNVFSCSVLHEALHAHTTRKELSLSP heavy 2: not shown light 1: QVQLVQSGAEVKKPGSSVKVSCKASGLTISHTYMHWVRQAPGQGLEWMGRIDPDNHNTKFDPKFQGRVTITADTSTSTAYMELSSLRSEDTAVYYCARGVFGFFEHWGQGTTVTVSSASVAAPSVFIFPPSDEQLKSGTASVVCLLNNFYPREAKVQWKVDNALQSGNSQESVTEQDSKDSTYSLSSTLTLSKADYEKHKVYACEVTHQGLSSPVTKSFNRGEC light 2: EIVLTQSPATLSLSPGERATLSCRASQHVSDAYLAWYQQKPGQAPRLLIYDASDRAEGVPARFSGSGSGTDFTLTISSLEPEDFAVYYCHQYIHLHSFTFGQGTKVEIKRTVAAPSVFIFPPSDRKLKSGTASVVCLLNNFYPREAKVQWKVDNALQSGNSQESVTEQDSKDSTYSLSSTLTLSKADYEKHKVYACEVTHQGLSSPVTKSFNRGEC
–	82%	0.14 nM	0.4 nM	P1AF8143 (CKLO2-CB-GG02) (bispecific antibody) chain 1: not shown chain 2: QVQLVQSGAEVKKPGSSVKVSCKASGLTISHTYMHWVRQAPGQGLEWMGRIDPDNHNTKFDPKFQGRVTITADTSTSTAYMELSSLRSEDTAVYYCARGVFGFFEHWGQGTTVTVSSASTKGPSVFPLAPSSKSTSGGTAALGCLVKDYFPEPVTVSWNSGALTSGVHTFPAVLQSSGLYSLSSVVTVPSSSLGTQTYICNVNHKPSNTKVDKKVEPKSCGGSGGGGSGGDKTHTCPPCPAPEYLGGDSVFLFPPKPKDVLMISRTPEVTCVVIDVSHEDPEVKFNWYVDGVEVHNAKTKPREEQYNSTYRVVSVLPVLHRDWLNGKEYKCKVSNKALPKPIEKTISKAKGQRREPQVYTLPPCRDELTKNQVSLWCLVKGFYPSDIAVEWESNGQPENNYKTTPPVLDSDGSFFLYSKLTVDKSRWQQGNVFSCSVLHEALHAHTTRKELSLSPGKGGSGGGGSGGDIQMTQSPSSLSASVGDRVTITCKAFEDIYNRRAWYQQKPGKAPKLLIHGATSLEHGVPSRFSGSGSGTDYTLTISSLQPEDFATYYCQQFWSAPYTFGGGTKVEIKRTVAAPSVFIFPPSDEQLKSGTASVVCLLNNFYPREAKVQWKVDNALQSGNSQESVTEQDSKDSTYSLSSTLTLSKADYEKHKVYACEVTHQGLSSPVTKSFNRGEC
